In the supplement of paper PMC10567573:

B1: TRIM43 (parent)
chain: RAQMIRNEYRKLHPVLHKEEKQHL

Variants of: B1
Experiment: protein stability index of a GFP-peptide fusion (GPS, HEK-293T) (PSI 1-6); higher = more stable
Conditions: c terminus: a fixed tail appended
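Further: lentivirally expressed fusions sorted by FACS into six bins by GFP to DsRed ratio, PSI derived from sequencing read proportions per bin multiplied by bin number.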

Protein stability index: each site, then its substitutions
K11: L 3.49; W 3.14; D 4.29; A 3.14; E 4.15
Y9: R 3.84; G 3.96; P 3.93; I 3.03; M 3.97; C 3.79; H 4.12; F 3.35; D 4.24; L 3.25; W 2.44; N 3.79; E 3.96; K 3.65; Q 4.31
N7: K 3.44; G 3.08; W 1.96; T 3.3; V 2.64; A 2.39; I 2.57; Y 2.74; P 4.17; L 3.49; S 2.83; M 2.98; H 3.28; R 3.15
M4: Y 2.74; P 3.73; R 3.11; H 3.46; V 3.39; N 3.45; I 2.6; T 3.69; C 3.23; W 2.44; E 3.86; D 3.53; F 2.61; G 3.66; L 3.2
E19: L 2.07; W 2.18; K 3.41; Q 3.22; T 2.82; A 2.17; P 4.02; S 2.92; V 2.25; M 2.23; Y 1.97; N 2.42; I 1.73
H17: R 3.79; L 2.93; F 2.53; D 3.5; N 3.28; I 2.8; V 3.74; G 3.56; P 3.42; W 2.8; A 2.37; C 2.58
L16: F 3.04; K 3.85; T 3.57; V 4.07; A 3.52; M 3.94; C 2.71; S 3.65; Y 2.52; P 3.92; W 2.3; G 3.1
P14: Q 2.51; Y 2.27; R 3.23; N 2.64; M 2.5; I 2.44; S 2.04; H 2.28; E 3.28; G 3.11; V 2.59; D 3.33; A 2.53; L 3.51; C 2.42; K 2.7
I5: C 2.02; M 3.39; N 4.04; Q 3.89; D 4.2; L 3.92; H 3.56; P 3.83; S 3.67; E 4.06; V 3.15; W 2.87
R1: H 3.47; V 3.99; C 2.17; Q 3.04; T 2.85; K 2.93; A 3.44; I 2.01; S 3.78; N 3.44
V15: E 3.5; P 3.32; L 2.63; Q 3.17; W 2.5; D 3.64; S 2.94; A 3.39; G 3.88; C 3; T 3.13; R 3.37; H 2.98; N 3.65
A2: G 3.61; N 3.18; K 3.2; S 2.99; F 1.95; Q 3.09; L 2.96; H 3.26; V 2.78; T 3.17; C 3.35; I 2.14; E 4.26; Y 3.13
L12: K 3.7; D 4.02; T 3.85; C 3.03; W 2.96; G 4.18; A 3.67; F 2.94; R 3.94; N 4.16; M 2.86; E 4.06; H 4.27; Q 3.36; I 3.07
